Test results from paper PMC5714199.

Tests used:
Experiment in all cases: SPR
TopA CTD = TopA CTD (Streptomyces coelicolor, UniProt Q9X909 610-952)
TopA wild type = TopA wild type (Streptomyces coelicolor, UniProt Q9X909 1-952)
CTDΔED = CTDΔED (Streptomyces coelicolor, UniProt Q9X909 610-950, del951-952)
TopA881 = TopA881 (Streptomyces coelicolor, UniProt Q9X909 1-881, del882-952)

Measured: binding result

B1: sstopA-biot 120 nt ssDNA (63% GC) (ssDNA)
DNA: not shown
binds: all assays above
